The values that follow come from patent CN115611981A (GENOR BIOPHARMA CO LTD, dated 2023).

The target of the test is T1, PD-1 (UniProt Q15116 25-288, limits assumed).
T1 construct: whole, on cells; also called Jurkat/PD-1细胞表面的PD-1; Jurkat/PD1
Kind of test: Jurkat/PD-1 + CHO/PD-L1 NFAT-luciferase reporter blockade assay (binding inferred). In general terms: A reporter such as luciferase makes a cellular process visible.

T1 sequence (Q15116 25-288 limits assumed): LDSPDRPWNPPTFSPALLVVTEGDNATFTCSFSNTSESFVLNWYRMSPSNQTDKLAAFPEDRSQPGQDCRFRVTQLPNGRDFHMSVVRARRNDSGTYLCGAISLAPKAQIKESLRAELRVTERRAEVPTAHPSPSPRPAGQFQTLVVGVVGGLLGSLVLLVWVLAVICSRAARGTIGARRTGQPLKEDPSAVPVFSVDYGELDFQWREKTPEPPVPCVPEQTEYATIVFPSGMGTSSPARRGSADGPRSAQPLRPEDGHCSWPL

B1: G-Ab1 (antibody, human IgG4 S228P, kappa, V domains shown)
VH: QIQLVQSGSELKKPGASVKVSCKASGYTFTNFGMNWVRQAPGQGLKWMGWISGYTREPTYAADFKGRFVISLDTSVSTAYLQISSLKAEDTAVYYCARDVFDYWGQGTLVTVSS
VL: DIVLTQSPASLAVSPGQRATITCRASESVDNYGYSFMNWFQQKPGQPPKLLIYRASNLESGVPARFSGSGSRTDFTLTINPVEADDTANYYCQQSNADPTFGQGTKLEIKR
notes: The control used was an IgG4 isotype control; also called 抗PD-1抗体; G-Ab1抗体
Regarding B1, the binding result is recorded as “binds”.
